According to the Immune Epitope Database (IEDB):

Legend:
HLA-A*02:01 = assay: IEDB peptide-MHC binding, purified MHC/competitive/radioactivity; ≥ and ≤ were set here for values at or beyond the usual limits of such assays; details: source organism: Lassa virus Josiah
HLA-A*02:02 = assay: as above
HLA-A*02:03 = assay: as above
HLA-A*02:06 = assay: as above
HLA-A*68:02 = assay: IEDB peptide-MHC binding, purified MHC/competitive/radioactivity; filed as Kd, often an IC50 or EC50 that approximates it; ≥ and ≤ were set here for values at or beyond the usual limits of such assays
[1] = source organism: Lassa virus Josiah
[2] = source organism: Lassa virus GA391

Row | Sequence | IC50 (HLA-A*02:01) [nM] | other results
1 | GLYKQPGVPV | 89 | 
2 | GLYNFATCGL | 31 | 
3 | IISTFHLSI | 330 | 
4 | ILAADLEKL | 92 | 
5 | LIALSVLAV | 102 | 
6 | LMSIISTFHL | 113 | 
7 | SLYKGVYEL | 47 | IC50 (HLA-A*02:02; [1]): 115 nM; IC50 (HLA-A*02:03; [1]): 12 nM; IC50 (HLA-A*02:06; [1]): 395 nM; Kd (HLA-A*68:02; [1]): ≥ 10000 nM
8 | VLIALSVLAV | 485 | 
9 | YLISIFLHL | 14 | IC50 (HLA-A*02:02; [2]): 173 nM; IC50 (HLA-A*02:03; [2]): 11 nM; IC50 (HLA-A*02:06; [2]): 10 nM; Kd (HLA-A*68:02; [2]): 6660 nM
